From the supplement of paper PMC10724198

Tests used:
Saccharomyces cerevisiae [1] = test: protein stability index of tFT-peptide fusion in wild type (PSI (0-1 scale)); higher = more stable (slower turnover); settings: genetic background: wild type
Description: (§1)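 MPS profiling in S. cerevisiae of two library types built from selected 12-aa C-degron peptides (IN1, IN2, LN1, LN3, VN2, R1-R5, W1-W3, Atg1 and Rpa12 C-termini): saturation mutagenesis libraries and C-terminal +1 capping libraries (13 aa). Each peptide is fused to the C-terminus of a sfGFP-mCherry timer, after a GGGS linker. Cells are FACS-sorted into 8 mCherry/sfGFP bins and sequenced. PSI runs from 0 (unstable) to 1 (stable), measured once in wild type and in the das1Δ or doa10Δ background.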

Saccharomyces cerevisiae [2] = test: protein stability index of tFT-peptide fusion in deletion strain of DAS1 (PSI (0-1 scale)); higher = more stable (slower turnover)
Description: as §1
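For protein stability index of tFT-peptide fusion in deletion strain of DAS1 in this document: PSI is a weighted mean of each variant's read distribution over the sorted stability bins, computed only for variants having over 10 reads in total.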
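For protein stability index of tFT-peptide fusion in wild type in this document: PSI derived as read-weighted mean over the 8 sorting bins, only variants exceeding 10 total reads kept, mCherry placed adjacent to the peptide and sfGFP distal.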

Row | Sequence | protein stability index (Saccharomyces cerevisiae [1]) | protein stability index (Saccharomyces cerevisiae [2])
1 | VRGAVGGWRFVG | 0.142 | 0.674
2 | FSNRWTFRYWVN | 0.0838 | 0.617
3 | CTSCGYKHRTNN | 0.582 | 0.687
4 | FSMRWTFRYVVN | 0.117 | 0.496
5 | LVVYLSCVQCIN | 0.0151 | 0.0333
6 | LKILRQKMNHSN | 0.231 | 0.674
7 | RLIQPLPNQFLN | 0.21 | 0.703
8 | VRGAVGGWRLVGM | 0.621 | 0.685
9 | LVVYLSCVACIP | 0.0232 | 0.0442
10 | DSLAASFWRVVG | 0.135 | 0.697
11 | ARWRMGLWRGAS | 0.605 | 0.689
12 | VRGAVGGWRLVGQ | 0.701 | 0.667
13 | PDCRNHLIKLLN | 0.136 | 0.673
14 | PSLAAGFWRVVG | 0.164 | 0.678
15 | FSMRWTFRYWDN | 0.0861 | 0.554
16 | FCMRWTFRYWVN | 0.0388 | 0.481
17 | RLIQPLPHQFLN | 0.0684 | 0.645
18 | PSLAISFWRVVG | 0.127 | 0.633
19 | FHMRWTFRYWVN | 0.0327 | 0.466
20 | ARWRVGLWIGAS | 0.367 | 0.572

Row | Sequence | protein stability index (Saccharomyces cerevisiae [1]) | protein stability index (Saccharomyces cerevisiae [2])
21 | LKSLRQKMNHQN | 0.202 | 0.681
22 | VRGAVGIWRLVG | 0.156 | 0.681
23 | SRWRVGLWRGAS | 0.458 | 0.672
24 | KKHKKGQKVKIN | 0.225 | 0.615
25 | VRGAVGGWRHVG | 0.137 | 0.691
26 | VRGANGGWRLVG | 0.212 | 0.677
27 | MLIQPLPVQFLN | 0.0562 | 0.654
28 | VRGAVGGWRCVG | 0.222 | 0.658
29 | CKSCGYKFRTNN | 0.276 | 0.697
30 | RLIQPLPVQFLR | 0.668 | 0.58
31 | LVVYLSCVACINA | 0.0212 | 0.0343
32 | CTSCGYVFRTNN | 0.196 | 0.698
33 | RLIEPLPVQFLN | 0.076 | 0.578
34 | PDKRNHLIKTLN | 0.164 | 0.604
35 | ARWRVGLWAGAS | 0.599 | 0.627
36 | PSLAASFWRVNG | 0.167 | 0.702
37 | ARWRLGLWRGAS | 0.458 | 0.687
38 | ASLAASFWRVVG | 0.135 | 0.695
39 | ARWRVKLWRGAS | 0.357 | 0.684
40 | PPKRNHLIKLLN | 0.116 | 0.581

Row | Sequence | protein stability index (Saccharomyces cerevisiae [1]) | protein stability index (Saccharomyces cerevisiae [2])
41 | PDKRNHHIKLLN | 0.111 | 0.665
42 | CTSCGYHFRTNN | 0.258 | 0.695
43 | PSLAASGWRVVG | 0.193 | 0.679
44 | CTSCGYKFRTPN | 0.689 | 0.71
45 | RTIQPLPVQFLN | 0.101 | 0.629
46 | LVVYLSCNACIN | 0.0647 | 0.0655
47 | FSMRWTDRYWVN | 0.0929 | 0.568
48 | LVVYLSCVLCIN | 0.0221 | 0.141
49 | VRGAVTGWRLVG | 0.157 | 0.684
50 | LKILRQIMNHQN | 0.244 | 0.693
51 | CVSCGYKFRTNN | 0.243 | 0.705
52 | ARWRVGLTRGAS | 0.664 | 0.679
53 | LVVHLSCVACIN | 0.0147 | 0.0251
54 | RLIQPRPVQFLN | 0.0515 | 0.613
55 | SRGAVGGWRLVG | 0.171 | 0.677
56 | ARERVGLWRGAS | 0.609 | 0.726
57 | PSLAASFWRVVGQ | 0.649 | 0.705
58 | AVVYLSCVACIN | 0.0207 | 0.038
59 | RLIQPLPVQFLS | 0.156 | 0.606
